# “And” between values parts separate entries of the source, which are not always exact repeats. Identical values can stand only once.
# What was measured:
# [1] = target: the molecule itself; experiment: MST; 0.5 μM FITC-labelled Ire1-LD titrated with unlabelled Ire1-LD; HMK buffer with 1 mM TCEP or 5 mM DTT; apparent dimerization constant (dimer to monomers); no substrate peptide
# [2] = target: the molecule itself; experiment: native MS; 5 μM Ire1-LD sprayed from 100 mM ammonium acetate at pH 6.8; no substrate peptide
# co-sedimentation = target: the molecule itself; experiment: co-sedimentation
# turbidity (OD at 400 nm) = target: the molecule itself; experiment: turbidity (OD at 400 nm)
protein,measurement,setting,value
"human Ire1α luminal domain (aa 24–449), wild type (domain or fragment, UniProt O75460 24-449, looked up, FITC-labelled for the copy held at fixed concentration in MST and for fluorescence polarisation; unlabelled elsewhere, human Ire1α luminal domain (Ire1-LD), aa 24-449 of UniProt O75460; Cloned into the pET His6 TEV LIC vector (Addgene 29653); 15N- or 13C,15N-labelled for NMR; also called Ire1-LD; WT Ire1-LD; source: E. coli BL21 (DE3), purified (HisTrap HP nickel column, dialysis)) STVTLPETLLFVSTLDGSLHAVSKRTGSIKWTLKEDPVLQVPTHVEEPAFLPDPNDGSLYTLGSKNNEGLTKLPFTIPELVQASPCRSSDGILYMGKKQDIWYVIDLLTGEKQQTLSSAFADSLCPSTSLLYLGRTEYTITMYDTKTRELRWNATYFDYAASLPEDDVDYKMSHFVSNGDGLVVTVDSESGDVLWIQNYASPVVAFYVWQREGLRKVMHINVAVETLRYLTFMSGEVGRITKWKYPFPKETEAKSKLTPTLYVGKYSTSLYASPSMVHEGVAVVPRGSTLPLLEGPQTDGVTIGDKGECVITPSTDVKFDPGLKSKNKLNYLRNYWLLIGHHETPLSASTKMLERFPNNLPKHRENVIPADSEKKSFEEVINLVDQTSENAPTTVSRDVEEKPAHAPARPEAPVDSMLKDMATIIL",Kd,[1],500 ± 170 nM
same,stoichiometry N,[2],2 and 4
"human Ire1α luminal domain (aa 24–449), 315LL316 to DA variant (domain or fragment, UniProt O75460 24-449, looked up, human Ire1α luminal domain (Ire1-LD), aa 24-449 of UniProt O75460, with LL 315-316 replaced by DA; source: E. coli BL21 (DE3), purified (HisTrap HP nickel column)) STVTLPETLLFVSTLDGSLHAVSKRTGSIKWTLKEDPVLQVPTHVEEPAFLPDPNDGSLYTLGSKNNEGLTKLPFTIPELVQASPCRSSDGILYMGKKQDIWYVIDLLTGEKQQTLSSAFADSLCPSTSLLYLGRTEYTITMYDTKTRELRWNATYFDYAASLPEDDVDYKMSHFVSNGDGLVVTVDSESGDVLWIQNYASPVVAFYVWQREGLRKVMHINVAVETLRYLTFMSGEVGRITKWKYPFPKETEAKSKLTPTLYVGKYSTSLYASPSMVHEGVAVVPRGSTLPDAEGPQTDGVTIGDKGECVITPSTDVKFDPGLKSKNKLNYLRNYWLLIGHHETPLSASTKMLERFPNNLPKHRENVIPADSEKKSFEEVINLVDQTSENAPTTVSRDVEEKPAHAPARPEAPVDSMLKDMATIIL",binding result,co-sedimentation,binds
"human Ire1α luminal domain (aa 24–449), 359WLLI362 to GSSG variant (domain or fragment, UniProt O75460 24-449, looked up, human Ire1α luminal domain (Ire1-LD), aa 24-449 of UniProt O75460, with WLLI 359-362 replaced by GSSG at the oligomerisation interface; Methods and one legend print 358WLLI362; also called 358WLLI362 to GSSG; source: E. coli BL21 (DE3), expressed overnight at 20°C, purified (HisTrap HP nickel column)) STVTLPETLLFVSTLDGSLHAVSKRTGSIKWTLKEDPVLQVPTHVEEPAFLPDPNDGSLYTLGSKNNEGLTKLPFTIPELVQASPCRSSDGILYMGKKQDIWYVIDLLTGEKQQTLSSAFADSLCPSTSLLYLGRTEYTITMYDTKTRELRWNATYFDYAASLPEDDVDYKMSHFVSNGDGLVVTVDSESGDVLWIQNYASPVVAFYVWQREGLRKVMHINVAVETLRYLTFMSGEVGRITKWKYPFPKETEAKSKLTPTLYVGKYSTSLYASPSMVHEGVAVVPRGSTLPLLEGPQTDGVTIGDKGECVITPSTDVKFDPGLKSKNKLNYLRNYGSSGGHHETPLSASTKMLERFPNNLPKHRENVIPADSEKKSFEEVINLVDQTSENAPTTVSRDVEEKPAHAPARPEAPVDSMLKDMATIIL",binding result,turbidity (OD at 400 nm),binds
